From US20200079833A1 (AstraZeneca / MedImmune, published 2020)
Starred links: 1 amine or outer side, 2 acyl side, 3 side chain; linkers in the order of their positions; H or OH if unused. Non-standard residues stand in square brackets, D forms with d. Groups on a side chain read outwards from the residue. No end group written: not given here. *: point of attachment. γGlu = O=C(O)[C@H](CCC(=O)[*:2])N[*:1]; Palmitoyl = CCCCCCCCCCCCCCCC(=O)*; αMeF = C[C@](N)(Cc1ccccc1)C(=O)O; αMeK = C[C@](N)(CCCCN)C(=O)O; αMeS = C[C@](N)(CO)C(=O)O; Aib = CC(C)(N)C(=O)O

T1: GLP-1R (INS1e assay) (UniProt P32301 22-463, limits assumed)
T1 sequence (looked up): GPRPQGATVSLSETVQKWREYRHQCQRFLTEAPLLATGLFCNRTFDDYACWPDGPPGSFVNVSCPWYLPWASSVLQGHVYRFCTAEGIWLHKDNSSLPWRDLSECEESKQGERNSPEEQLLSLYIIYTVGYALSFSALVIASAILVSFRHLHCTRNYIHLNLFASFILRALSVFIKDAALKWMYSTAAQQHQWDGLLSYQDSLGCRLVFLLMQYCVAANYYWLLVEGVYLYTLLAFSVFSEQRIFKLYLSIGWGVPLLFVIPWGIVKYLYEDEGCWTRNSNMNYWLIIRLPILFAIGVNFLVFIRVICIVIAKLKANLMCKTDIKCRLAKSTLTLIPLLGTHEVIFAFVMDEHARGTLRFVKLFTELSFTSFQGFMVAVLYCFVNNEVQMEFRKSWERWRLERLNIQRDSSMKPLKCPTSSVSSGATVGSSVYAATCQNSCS

B1: SEQ ID NO 78 (peptide)
peptide: H[Aib]EGS[αMeF]TSDV[αMeS]S[αMeF]LEGEAA[αMeK]EK([γGlu-Palmitoyl])IA[αMeF]VV[αMeK]GG-NH2
modifications: N-terminus assumed
SMILES: CCCCCCCCCCCCCCCC(=O)N[C@@H](CCC(=O)NCCCC[C@H](NC(=O)[C@H](CCC(=O)O)NC(=O)[C@](C)(CCCCN)NC(=O)[C@H](C)NC(=O)[C@H](C)NC(=O)[C@H](CCC(=O)O)NC(=O)CNC(=O)[C@H](CCC(=O)O)NC(=O)[C@H](CC(C)C)NC(=O)[C@](C)(Cc1ccccc1)NC(=O)[C@H](CO)NC(=O)[C@](C)(CO)NC(=O)[C@@H](NC(=O)[C@H](CC(=O)O)NC(=O)[C@H](CO)NC(=O)[C@@H](NC(=O)[C@](C)(Cc1ccccc1)NC(=O)[C@H](CO)NC(=O)CNC(=O)[C@H](CCC(=O)O)NC(=O)C(C)(C)NC(=O)[C@@H](N)Cc1c[nH]cn1)[C@@H](C)O)C(C)C)C(=O)N[C@H](C(=O)N[C@@H](C)C(=O)N[C@@](C)(Cc1ccccc1)C(=O)N[C@H](C(=O)N[C@H](C(=O)N[C@@](C)(CCCCN)C(=O)NCC(=O)NCC(N)=O)C(C)C)C(C)C)[C@@H](C)CC)C(=O)O
B2: SEQ ID NO 84 (peptide)
peptide: H[Aib]EGS[αMeF]TSDV[αMeS]S[αMeF]LEK([γGlu-Palmitoyl])EAA[αMeK]E[αMeF]IA[αMeF]VV[αMeK]GG-NH2
modifications: N-terminus assumed
SMILES: CCCCCCCCCCCCCCCC(=O)N[C@@H](CCC(=O)NCCCC[C@H](NC(=O)[C@H](CCC(=O)O)NC(=O)[C@H](CC(C)C)NC(=O)[C@](C)(Cc1ccccc1)NC(=O)[C@H](CO)NC(=O)[C@](C)(CO)NC(=O)[C@@H](NC(=O)[C@H](CC(=O)O)NC(=O)[C@H](CO)NC(=O)[C@@H](NC(=O)[C@](C)(Cc1ccccc1)NC(=O)[C@H](CO)NC(=O)CNC(=O)[C@H](CCC(=O)O)NC(=O)C(C)(C)NC(=O)[C@@H](N)Cc1c[nH]cn1)[C@@H](C)O)C(C)C)C(=O)N[C@@H](CCC(=O)O)C(=O)N[C@@H](C)C(=O)N[C@@H](C)C(=O)N[C@@](C)(CCCCN)C(=O)N[C@@H](CCC(=O)O)C(=O)N[C@@](C)(Cc1ccccc1)C(=O)N[C@H](C(=O)N[C@@H](C)C(=O)N[C@@](C)(Cc1ccccc1)C(=O)N[C@H](C(=O)N[C@H](C(=O)N[C@@](C)(CCCCN)C(=O)NCC(=O)NCC(N)=O)C(C)C)C(C)C)[C@@H](C)CC)C(=O)O
B3: SEQ ID NO 82 (peptide)
peptide: H[Aib]EGS[αMeF]TSDV[αMeS]S[αMeF]LEGEK([γGlu-Palmitoyl])A[αMeK]E[αMeF]IA[αMeF]VV[αMeK]GG-NH2
modifications: N-terminus assumed
SMILES: CCCCCCCCCCCCCCCC(=O)N[C@@H](CCC(=O)NCCCC[C@H](NC(=O)[C@H](CCC(=O)O)NC(=O)CNC(=O)[C@H](CCC(=O)O)NC(=O)[C@H](CC(C)C)NC(=O)[C@](C)(Cc1ccccc1)NC(=O)[C@H](CO)NC(=O)[C@](C)(CO)NC(=O)[C@@H](NC(=O)[C@H](CC(=O)O)NC(=O)[C@H](CO)NC(=O)[C@@H](NC(=O)[C@](C)(Cc1ccccc1)NC(=O)[C@H](CO)NC(=O)CNC(=O)[C@H](CCC(=O)O)NC(=O)C(C)(C)NC(=O)[C@@H](N)Cc1c[nH]cn1)[C@@H](C)O)C(C)C)C(=O)N[C@@H](C)C(=O)N[C@@](C)(CCCCN)C(=O)N[C@@H](CCC(=O)O)C(=O)N[C@@](C)(Cc1ccccc1)C(=O)N[C@H](C(=O)N[C@@H](C)C(=O)N[C@@](C)(Cc1ccccc1)C(=O)N[C@H](C(=O)N[C@H](C(=O)N[C@@](C)(CCCCN)C(=O)NCC(=O)NCC(N)=O)C(C)C)C(C)C)[C@@H](C)CC)C(=O)O
B4: SEQ ID NO 80 (peptide)
peptide: H[Aib]EGS[αMeF]TSDV[αMeS]S[αMeF]LEGEAAK([γGlu-Palmitoyl])E[αMeF]IA[αMeF]VV[αMeK]GG-NH2
modifications: N-terminus assumed
SMILES: CCCCCCCCCCCCCCCC(=O)N[C@@H](CCC(=O)NCCCC[C@H](NC(=O)[C@H](C)NC(=O)[C@H](C)NC(=O)[C@H](CCC(=O)O)NC(=O)CNC(=O)[C@H](CCC(=O)O)NC(=O)[C@H](CC(C)C)NC(=O)[C@](C)(Cc1ccccc1)NC(=O)[C@H](CO)NC(=O)[C@](C)(CO)NC(=O)[C@@H](NC(=O)[C@H](CC(=O)O)NC(=O)[C@H](CO)NC(=O)[C@@H](NC(=O)[C@](C)(Cc1ccccc1)NC(=O)[C@H](CO)NC(=O)CNC(=O)[C@H](CCC(=O)O)NC(=O)C(C)(C)NC(=O)[C@@H](N)Cc1c[nH]cn1)[C@@H](C)O)C(C)C)C(=O)N[C@@H](CCC(=O)O)C(=O)N[C@@](C)(Cc1ccccc1)C(=O)N[C@H](C(=O)N[C@@H](C)C(=O)N[C@@](C)(Cc1ccccc1)C(=O)N[C@H](C(=O)N[C@H](C(=O)N[C@@](C)(CCCCN)C(=O)NCC(=O)NCC(N)=O)C(C)C)C(C)C)[C@@H](C)CC)C(=O)O
B5: SEQ ID NO 79 (peptide)
peptide: H[Aib]EGS[αMeF]TSDV[αMeS]S[αMeF]LEGEAA[αMeK]K([γGlu-Palmitoyl])[αMeF]IA[αMeF]VV[αMeK]GG-NH2
modifications: N-terminus assumed
SMILES: CCCCCCCCCCCCCCCC(=O)N[C@@H](CCC(=O)NCCCC[C@H](NC(=O)[C@](C)(CCCCN)NC(=O)[C@H](C)NC(=O)[C@H](C)NC(=O)[C@H](CCC(=O)O)NC(=O)CNC(=O)[C@H](CCC(=O)O)NC(=O)[C@H](CC(C)C)NC(=O)[C@](C)(Cc1ccccc1)NC(=O)[C@H](CO)NC(=O)[C@](C)(CO)NC(=O)[C@@H](NC(=O)[C@H](CC(=O)O)NC(=O)[C@H](CO)NC(=O)[C@@H](NC(=O)[C@](C)(Cc1ccccc1)NC(=O)[C@H](CO)NC(=O)CNC(=O)[C@H](CCC(=O)O)NC(=O)C(C)(C)NC(=O)[C@@H](N)Cc1c[nH]cn1)[C@@H](C)O)C(C)C)C(=O)N[C@@](C)(Cc1ccccc1)C(=O)N[C@H](C(=O)N[C@@H](C)C(=O)N[C@@](C)(Cc1ccccc1)C(=O)N[C@H](C(=O)N[C@H](C(=O)N[C@@](C)(CCCCN)C(=O)NCC(=O)NCC(N)=O)C(C)C)C(C)C)[C@@H](C)CC)C(=O)O
B6: SEQ ID NO 86 (peptide)
peptide: H[Aib]EGS[αMeF]TSDV[αMeS]S[αMeF]K([γGlu-Palmitoyl])EGEAA[αMeK]E[αMeF]IA[αMeF]VV[αMeK]GG-NH2
modifications: N-terminus assumed
SMILES: CCCCCCCCCCCCCCCC(=O)N[C@@H](CCC(=O)NCCCC[C@H](NC(=O)[C@](C)(Cc1ccccc1)NC(=O)[C@H](CO)NC(=O)[C@](C)(CO)NC(=O)[C@@H](NC(=O)[C@H](CC(=O)O)NC(=O)[C@H](CO)NC(=O)[C@@H](NC(=O)[C@](C)(Cc1ccccc1)NC(=O)[C@H](CO)NC(=O)CNC(=O)[C@H](CCC(=O)O)NC(=O)C(C)(C)NC(=O)[C@@H](N)Cc1c[nH]cn1)[C@@H](C)O)C(C)C)C(=O)N[C@@H](CCC(=O)O)C(=O)NCC(=O)N[C@@H](CCC(=O)O)C(=O)N[C@@H](C)C(=O)N[C@@H](C)C(=O)N[C@@](C)(CCCCN)C(=O)N[C@@H](CCC(=O)O)C(=O)N[C@@](C)(Cc1ccccc1)C(=O)N[C@H](C(=O)N[C@@H](C)C(=O)N[C@@](C)(Cc1ccccc1)C(=O)N[C@H](C(=O)N[C@H](C(=O)N[C@@](C)(CCCCN)C(=O)NCC(=O)NCC(N)=O)C(C)C)C(C)C)[C@@H](C)CC)C(=O)O
B7: SEQ ID NO 83 (peptide)
peptide: H[Aib]EGS[αMeF]TSDV[αMeS]S[αMeF]LEGK([γGlu-Palmitoyl])AA[αMeK]E[αMeF]IA[αMeF]VV[αMeK]GG-NH2
modifications: N-terminus assumed
SMILES: CCCCCCCCCCCCCCCC(=O)N[C@@H](CCC(=O)NCCCC[C@H](NC(=O)CNC(=O)[C@H](CCC(=O)O)NC(=O)[C@H](CC(C)C)NC(=O)[C@](C)(Cc1ccccc1)NC(=O)[C@H](CO)NC(=O)[C@](C)(CO)NC(=O)[C@@H](NC(=O)[C@H](CC(=O)O)NC(=O)[C@H](CO)NC(=O)[C@@H](NC(=O)[C@](C)(Cc1ccccc1)NC(=O)[C@H](CO)NC(=O)CNC(=O)[C@H](CCC(=O)O)NC(=O)C(C)(C)NC(=O)[C@@H](N)Cc1c[nH]cn1)[C@@H](C)O)C(C)C)C(=O)N[C@@H](C)C(=O)N[C@@H](C)C(=O)N[C@@](C)(CCCCN)C(=O)N[C@@H](CCC(=O)O)C(=O)N[C@@](C)(Cc1ccccc1)C(=O)N[C@H](C(=O)N[C@@H](C)C(=O)N[C@@](C)(Cc1ccccc1)C(=O)N[C@H](C(=O)N[C@H](C(=O)N[C@@](C)(CCCCN)C(=O)NCC(=O)NCC(N)=O)C(C)C)C(C)C)[C@@H](C)CC)C(=O)O

Molecular target: T1, GLP-1R (INS1e assay)
Assay: cell-based or functional assay

Binder | INS1e assay EC50 GLP-1 R n1 [nM] | INS1e assay EC50 GLP-1 R n2 [nM] | INS1e assay EC50 Mean pM GLP-1R [pM]
B1 | 0.345 | 0.346 | 346
B2 | 0.455 | 0.665 | 560
B3 | 0.151 | 0.238 | 195
B4 | 3.89 | 1.33 | 2610
B5 | 0.289 | 0.527 | 408
B6 | 0.0453 | 0.0845 | 65
B7 | 0.137 | 0.25 | 194
